Experiment: soluble on expression in E. coli; label from the status in PepcDB or PDB records

Row | Sequence | soluble on expression in E. coli
1 | MTKRSDSVAPKERINIKYVPATGDEQAEVELPHKMMVLGDFGLDDSRSLEDRQVMRIDKHTFNNVLNDADVSLAMSVPSALDATPNAELAVNLQFKSIQDFGPDRIARQVPELNKLLQLREALVALKGPLGNVPTFRKQLQQLLNDAHARKQLAQELDLVLEAPKAD | not soluble
2 | SNSALYNVDAGHRAVIFDRFRGVQDIVVGEGTHFLIPWVQKPIIFDCRSRPRNVPVITGSKDLQNVNITLRILFRPVASQLPRIYTSIGEDYDERVLPSITTEILKSVVARFDAGELITQRELVSRQVSDDLTERAATFGLILDDVSLTHLTFGKEFTEAVEAKQVAQQEAERARFVVEKAEQQKKAAIISAEGDSKAAELIANSLATAGDGLIELRKLEAAEDIAYQLSRSRNITYLPAGQSVLLQLPQ | soluble
3 | MGSDKIHHHHHHACEQNEDWVVNEPMQSFEENPEYAPLNTIPDWVSEKVTPKEYELWRTMSSRYEINYSFLKKDISEKRKKEIYDCINNICERIEKGQINKYEGFLNIADEDGTTLSDSQYFGRIATRSPEGGAEYKTNGCTLYTHSLGPYIKAAVTYKKSDDDVTITSSSVYTGSPYLGNDPSFSGASSVSYDKDKKLIAASCSGTLSFKDGSRKVEVTVQKTGFMIP | not soluble
4 | MLADPAQPEHVFIVEDSRGATELKLYKSHYTIGKADSCDIRLHSIYASRQHATLVRFLTENGEVRYRLIDGDPETSRRSANGTYVNNRSITECDLKHYDQILFGADVKATYFYLSPQFRSLEHHHHHH | not soluble
5 | MSLERIRDLTSVQGVRQNSLIGYGLVVGLDGTGDQTTQTPFTTQTLNNMLSQLGITVPTGTNMQLKNVAAVMVTASLPPFGRQGQTIDVVVSSMGNAKSLRGGTLLMTPLKGVDSQVYALAQGNILVGGAGASAGGSSVQVNQLNGGRITNGAVIERELPSQFGVGNTLNLQLNDEDFSMAQQIADTINRVRGYGSATALDARTIQVRVPSGNSSQVRFLADIQNMQVNVTPQDAKVVINSRTGSVVMNREVTLDSCAIAQGNLSVTVNRQANVSQPDTPFGGGQTVVTPQTQIDLRQSGGSLQSVRSSASLNNVVRALNALGATPMDLMSILQSMQSAGCLRAKLEIIEGHHHHHH | soluble
6 | MGSDKIHHHHHHMKMSINQIGRSNKVQIEKTEVEISTPDGKMPAFFYQPCERGQKPAVILLMEAFGLTSHIQDVATRIAKEGYVVLTPDLYYRELTNNKFGYEEVEQAMAMMYRLDFGKPIEEDIRAAIAYLKSQSNVFSEKIGVTGFCLGGGLSFLSACKFSDEIAAVASFYGMVLDDWIEAVTNISVPIYLFYGGIDSFIPPERVQQIETRFQELSKEYTLKVYPDADHGFFCHERSSYNRLAAEDSWNELTQFFHRHLQ | not soluble
7 | MSLAVLPDVPKSKDMKHRPRFLPSIGPMKKRVAFFSGCLMDTMFLPTNNATLKLLQLAGCDIVIPPEQACCGALHGHSGEKNTGKELAKQNIAAFEALDVDAVITNAGGCGAFLTEYDHLLKDDPEWSERAAAFVQKLKDFSSVLVELDFHQMDLALETPQVVTYQDSCHLRNVMHTSLEPRQLLKSIKGAEFKEMEKADSCCGSAGIYNIVEVEMSMKILDSKMAAVKATEAILIVTANPGCLLQMKLGIEREGLSGKVRAVHLADLLLEAAGHKTSEGHHHHHH | soluble
8 | RKRPLVLTADRGRGKSSALGIACAQLLQHKPLRILLTAPSINAVEPVYQHAQRLLTDAKQMKKDRLEVGYGYIQFIAPDELLSSLPECDLLLVDEAAAIPVPMLKQITEHYHRLVFSSTIHGYEGCGRGFTLKFIEWLQQQRPGMKTYHMQQPIRWSVDDKLEMWLYDAFILN | not soluble
9 | MKVIIFYTKTGGGHLSACKSLEESLNSMNIPVVTLDSLEFAGHLVSKEICSAYNYIVKSVPELFGALYNAGEKISDHNKKSIIYKLNSFYADNILTVLEEEQPDIIISTHIFATQSLSYLKQKNKVKALTASIVTDYTCAPFWEETDLDYYFLPHKDLIKEFKDKGLDSSKLIAFGLPIDSKFKVKTPKEKAKFNLALKKDKPHILIMGGSMGAGSVKDTTLYISKHLKECNITTICGNNKELFKEISEIKKSNPKIHVLQFTHEMNELMDSADILITKPGGLTSTEAMNKSLPIIMINPIPGVESANCNFFMKHNLGIKSNSLHETLKVCEKLISDKNFYEKIVSSQKLNSNINAAEDICKFLITKYHEIQYNSDNNSLLEHHHHHH | soluble
10 | MNNNHYTYRVLWSQEDEEYVGLCAEFPSLSWLDAQAEKALKGIMDLVSEVVEDMQHNGEEVPVPLSHGKYSGKFQLRIPPELHRKLAIQAAENGVSLNRYISSKL | not soluble
11 | MSLSKMAALITQEIGSFRKPEYLSMEFHKIEGTEKFKELAERATIDTLKIFENTGLDNVGIGGEMYRWEMYEHPAERIKGLIFYGMVRSFDNRYYRKGSVIDKIERRGSFHMDEVEFVAKSTKKPIKIPITGPYTMMDWSFNDHYNDRHELAMEFARIINEELKEIQSKWPYISNGRKLEIQIDEPATTTHPDEMDIVVDSVNKSIEGIDAELSLHVCYSRDYRLLYDRIPELNIDGYNLEYSNRDTTDLGVEDAKRPGFQDIKYFNEVNESLQRKKFIGVGVTDVHIDFIEPVKLIEDRIKYVLNIIKDPELVKLNPDCGLRTRSRSIGEQKLRNMVIAKNNVLKDISEGHHHHHH | not soluble
12 | MKKIQRTQTRDHITQMLRYEILSGNIKAGEELAQESIAEQLGLSRMPVREALQSLEQEGFLIRLPNRHMQVAHLEADRVSHIFRVIAAMAAEMFSLIPSEVGDALLIRAQALAVAEDKSCELECHAMLISYVNNRYLEKVYQQFLDGYVSYVILHLKKDNQESAQLFAELADVIRQGRRDEIGQVMQRYFLSLAEIMRQHMKDWESAEA | not soluble
13 | MSLTFCYPCRAFALLTRGFTSFMSGWPRIYYKLLNLPLSILVKSKSIPADPAPELGLDTSRPIMYVLPYNSKADLLTLRAQCLAHDLPDPLEPLEIDGTLLPRYVFIHGGPRVFTYYTPKEESIKLFHDYLDLHRSNPNLDVQMVPVSVMFGRAPGREKGEVNPPLRMLNGVQKFFAVLWLGRDSFVRFSPSVSLRRMADEHGTDKTIAQKLARVARMHFARQRLAAVGPRLPARQDLFNKLLASRAIAKAVEDEARSKKISHEKAQQNAIALMEEIAANFSYEMIRLTDRILGFTWNRLYQGINVHNAERVRQLAHDGHELVYVPCHRSHMDYLLLSYVLYHQGLVPPHIAAGINLNFWPAGPIFRRLGAFFIRRTFKGNKLYSTVFREYLGELFSRGYSVEYFVEGGRSRTGRLLDPKTGTLSMTIQAMLRGGTRPITLIPIYIGYEHVMEVGTYAKELRGATKEKESLPQMLRGLSKLRNLGQGYVNFGEPMPLMTYLNQHVPDWRESIDPIEAVRPAWLTPTVNNIAADLMVRINNAGAANAMNLCCTALLASRQRSLTREQLTEQLNCYLDLMRNVPYSTDSTVPSASASELIDHALQMNKFEVEKDTIGDIIILPREQAVLMTYYRNNIAHMLVLPSLMAAIVTQHRHISRDVLMEHVNVLYPMLKAELFLRWDRDELPDVIDALANEMQRQGLITLQDDELHINPVHSRTLQLLAAGARETLQRYAITFWLLSANPSINRGTLEKESRTVAQRLSVLHGINAPEFFDKAVFSSLVLTLRDEGYISDSGDAEPAETMKVYQLLAELITSDVRLTIESATQGEEGHHHHHH | soluble
14 | MSLKNNIYGNVPCFLNSKNLNQTNTLDTDVIVYGAPFEGESTWGDYTGVELGPKQIRVCSARYSQYLPELNHIDISEHLTMGDVGDVPFVAHDNKQSYDNISDFAKKLWDSGKFLVGFGGEHGVTYPILKALTETGKKVGIIHLDAHYDNMPDYEGEPYARNTPFMRLYETDGIRNESIIHTGIHGPRNKPETGRFAQEAGAVTLTINDIRAAKDLKTYAHEIYAQASKDVDVVYLTICSDVLDFAFNPGGPVDGNGLSSYELLTMIHEFGKLGLGGMDYVEVYPMMDANQNSAHFVSTAVLYVLAGHVAYLNQTEGHHHHHH | soluble
15 | MSLDQTVSNNFKMIYIASCGEGINAFHLVESTLVQFPDSDITVVKVPHIRTESQVDHLLDRVKDVESLIAHTIVEPNLRQYLVTKAEEHKIVTIDLMGQVLNKIETFLSIRPLGKPGLYRETHQVDLKQVTAIDFALAHDDGLRPESLDEAEIILVGLSRAGKTPLSMYMGVMGWKVANIPYVPGVPMPQTLDEVDRRRVIALNINIEQLLSHRKMRQESLGTSDMHAYSRRQEVEVEVQTAQKYYITKGFSMIDVSNKPIETSAEEIAEMITRRFKAQAHLKDEGHHHHHH | soluble
16 | MGSDKIHHHHHHMTQVHFTLKSEEIQSIIEYSVKDDVSKNILTTVFNQLMENQRTEYIQAKEYERTENRQSQRNGYYERSFTTRVGTLELKVPRTRDGHFSPTVFERYQRNEKALMASMLEMYVSGVSTRKVSKIVEELCGKSVSKSFVSSLTEQLEPMVNEWQNRLLSEKNYPYLMTDVLYIKVREENRVLSKSCHIAIGITKDGDREIIGFMIQSGESEETWTTFFEYLKERGLQGTELVISDAHKGLVSAIRKSFTNVSWQRCQVHFLRNIFTTIPKKNSKSFREAVKGIFKFTDINLAREAKNRLIHDYIDQPKYSKACASLDDGFEDAFQYTVQGNSHNRLKSTNLIERLNQEVRRREKIIRIFPNQTSANRLIGAVLMDLHDEWIYSSRKYINFDK | not soluble
17 | MALWGGRFSQAADQRFKQFNDSLRFDYRLAEQDIIGSVAWSKALVTVGVLNADEQQQLEQALSVLLEEVQANPHAILASDAEDIHSWVETKLIDKVGDLGKKLHTGRSRNDQVATDLKLWCKFQITELQTAVQQLQQALVMTAEANQDAVMPGYTHLQRAQPVTFAHWCLAYVEMLSRDESRLQDTLKRLDVSPLGCGALAGTAYAIDREQLAGWLGFASATRNSLDSVSDRDHVLELLSDASIGMVHLSRFAEDLIFFNSGEAAFVDLSDRVTSGSSLMPQKKNPDALELIRGKCGRVQGALTGMTMTLKGLPLAYNKDMQEDKEGLFDALDTWLDCLHMAALVLDGIQVKRPRCKEAAEQGYANATELADYLVAKGVPFREAHHIVGEAVVEAIRQGKALEALALSDLQQFSSVIGDDVYPILALQSCLDKRVAKGGVSPQQVASAIAEAKARLF | not soluble
18 | MSLSDYAPGMTGGPTGFEGAERFQYNNTMSEGRAIEGIKALQAAGNAPAKISMLLTDGAIGQITKPFPEGGPSAKEVWERETGIEIDIVGAPAEDIFKKVMQDVTTGGGTFDIYTGPWNSTGDLVSSGGAVNCSDFVAKYQPDWADPERGTPTPEMEKLLYTYAGDYYSFSLDGDFQTWFYLKGLYEDPRVQDAFLSETGVALKTPDTWEEVDRISKFFTGKDFGNGPMYGNGNLMSPFWGLATFYARFASMDFPNYHFFDEDGNPNLNSDLGIQCAEEHVRSFEWCPPDALTFTWAEAYATMWNLQIPHTAIYTNLVKFGDGYNADGTPKSKATGMIGSHLPVGRRFGDQLNRRSVLYYHITAWISSQSQHPEAVYLFLQWLSSTRTYTWMAGNPGGYFDPMQQANFKEPLVASTYHPYAMETIPQTIARSVPSINFAGQTALDNALDEEIQAAITGQKSAREAMDAAQSKWERIIKRQKRNGIVDAIKASRATWPTIVDEGHHHHHH | soluble
19 | MSTPLMQRSLSPQEWQVFQRGDRWTGARLHQPLNLLLIGSKVLTSDLDHPPDPNLTYHALVNSVEGLSDSLLLVRFDPVQQRLVILSIPRDTLTFIPGRGDAKINEANALGGPALAAATVSELLGNVPIDRYLRINVQGIEKLIDALGGVTLDVPIAMRYRDESQHLYIDLQAGRHHLNGQQALQFLRFRYDALGDIGRVQRQQMFLRTLMEQTARPETLARTPHILSIIRENLDTNLTVEELMSLGQFLTRLPRSRVQFLLLPGNFNGTTEEVAVSYWLPNYQRIAWLTDQYFRDTPTADPRETGLPSPAQVRIAIQNTNLPQSLVMRLSEQLATAGYPHPLVAEPLPQPIPITRIIAQQGDLAAARQVQLLLGFGEVRVESTGVLASDVTIQLGDDARDRLQLRRTTSLLEHHHHHH | soluble

— the DeepSol protein solubility set
